We go through 3 molecules from patent US20210115133A1 (NGM BIOPHARMACEUTICALS, published 2021).

Broadly, the Kd is the constant that tells how readily two partners part at equilibrium. Read a high Kd as lower affinity.

Experiment [1] has as its target T1, human beta klotho expressed on cells (human, UniProt Q86Z14 1-1044).
T1 construct: in the reporter assays HEK293 cells were transfected with a GeneCopoeia human beta klotho plasmid together with human FGFR1c; in the adipocyte assay the beta klotho/FGFR1c is endogenous; also called HuKLB overexpressing cells; huKLB/R1c
T1 sequence: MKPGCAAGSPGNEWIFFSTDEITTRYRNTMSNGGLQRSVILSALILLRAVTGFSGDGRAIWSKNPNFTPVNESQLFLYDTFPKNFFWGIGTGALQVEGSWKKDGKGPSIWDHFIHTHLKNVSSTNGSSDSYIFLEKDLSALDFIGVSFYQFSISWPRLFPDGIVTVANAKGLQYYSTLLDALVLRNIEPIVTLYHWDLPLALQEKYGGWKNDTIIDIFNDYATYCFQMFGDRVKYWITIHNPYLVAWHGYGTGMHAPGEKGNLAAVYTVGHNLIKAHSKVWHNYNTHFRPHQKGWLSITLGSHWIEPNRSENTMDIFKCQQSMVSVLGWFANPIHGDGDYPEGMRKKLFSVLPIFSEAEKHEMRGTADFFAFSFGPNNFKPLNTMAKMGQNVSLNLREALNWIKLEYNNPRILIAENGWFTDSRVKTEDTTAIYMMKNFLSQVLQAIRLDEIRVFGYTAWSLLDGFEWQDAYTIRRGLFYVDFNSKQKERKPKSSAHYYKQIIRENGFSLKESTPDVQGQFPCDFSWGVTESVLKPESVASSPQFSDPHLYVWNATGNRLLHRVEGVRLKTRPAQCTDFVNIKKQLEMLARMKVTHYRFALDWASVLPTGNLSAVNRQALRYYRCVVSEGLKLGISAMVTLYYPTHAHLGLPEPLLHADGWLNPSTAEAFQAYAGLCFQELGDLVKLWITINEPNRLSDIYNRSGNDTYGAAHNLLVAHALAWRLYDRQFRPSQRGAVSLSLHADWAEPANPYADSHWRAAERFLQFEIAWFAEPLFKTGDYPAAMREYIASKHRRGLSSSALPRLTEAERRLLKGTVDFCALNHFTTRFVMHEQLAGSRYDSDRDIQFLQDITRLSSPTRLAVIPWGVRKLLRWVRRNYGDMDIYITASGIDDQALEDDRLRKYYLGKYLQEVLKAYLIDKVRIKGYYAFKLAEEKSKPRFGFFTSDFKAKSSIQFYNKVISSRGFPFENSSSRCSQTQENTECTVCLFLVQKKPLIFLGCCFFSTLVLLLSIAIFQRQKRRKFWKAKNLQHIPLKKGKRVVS
Put plainly: FACS competition on HuKLB overexpressing cells; cells pre-incubated with the row's antibody, competitor: labelled 3I13-Alexa488. How it is done:
For example, for competition binding assays by FACS analysis, antibody standards were prepared that were conjugated to a fluorochrome using either A488 or A647 antibody labeling kit (Invitrogen) following manufacturer's instructions. A dose titration of the conjugated antibody standard was evaluated using HuKLB overexpressing cells. The plateau of the maximal signal of antibody binding is EC=100 and the background signal is EC=0. Competition by FACS against the fluorochrome labeled antibody was performed by pre-incubating HuKLB overexpressing cells with hybridoma supernatants for 15 minutes at room temperature. Without washing, an EC=10 concentration of A488 or A647 labelled antibody standard was added. EC=10 for an individual antibody was determined by 10% of signal using the maximum signal as (100%) and background signal as (0%). After 30 minutes at 4° C., cells are washed and analyzed by FACS. […] A partial competing antibody is one sample that show signal between labelled antibody alone and background. Antibodies that show complete competition against the same standard antibody are considered to be in the same bin.
In exemplary competition binding experiments by FACS, antibody 3I13 or 9E19 was used as an antibody standard fora positive control (competing antibody) or a negative control (labeled antibody alone), respectively. Representative results are shown in Table 5 below reported as mean fluorescence intensity (MFI).

For experiment [2], the target named is T1, human beta klotho expressed on cells. The experiment in a line: cell-based or functional assay.
Experiment [3] addresses T2, human beta klotho protein (human, UniProt Q86Z14 53-997, limits assumed).
T2 construct: also called HuKLB; human beta klotho (R&D Systems)
T2 sequence: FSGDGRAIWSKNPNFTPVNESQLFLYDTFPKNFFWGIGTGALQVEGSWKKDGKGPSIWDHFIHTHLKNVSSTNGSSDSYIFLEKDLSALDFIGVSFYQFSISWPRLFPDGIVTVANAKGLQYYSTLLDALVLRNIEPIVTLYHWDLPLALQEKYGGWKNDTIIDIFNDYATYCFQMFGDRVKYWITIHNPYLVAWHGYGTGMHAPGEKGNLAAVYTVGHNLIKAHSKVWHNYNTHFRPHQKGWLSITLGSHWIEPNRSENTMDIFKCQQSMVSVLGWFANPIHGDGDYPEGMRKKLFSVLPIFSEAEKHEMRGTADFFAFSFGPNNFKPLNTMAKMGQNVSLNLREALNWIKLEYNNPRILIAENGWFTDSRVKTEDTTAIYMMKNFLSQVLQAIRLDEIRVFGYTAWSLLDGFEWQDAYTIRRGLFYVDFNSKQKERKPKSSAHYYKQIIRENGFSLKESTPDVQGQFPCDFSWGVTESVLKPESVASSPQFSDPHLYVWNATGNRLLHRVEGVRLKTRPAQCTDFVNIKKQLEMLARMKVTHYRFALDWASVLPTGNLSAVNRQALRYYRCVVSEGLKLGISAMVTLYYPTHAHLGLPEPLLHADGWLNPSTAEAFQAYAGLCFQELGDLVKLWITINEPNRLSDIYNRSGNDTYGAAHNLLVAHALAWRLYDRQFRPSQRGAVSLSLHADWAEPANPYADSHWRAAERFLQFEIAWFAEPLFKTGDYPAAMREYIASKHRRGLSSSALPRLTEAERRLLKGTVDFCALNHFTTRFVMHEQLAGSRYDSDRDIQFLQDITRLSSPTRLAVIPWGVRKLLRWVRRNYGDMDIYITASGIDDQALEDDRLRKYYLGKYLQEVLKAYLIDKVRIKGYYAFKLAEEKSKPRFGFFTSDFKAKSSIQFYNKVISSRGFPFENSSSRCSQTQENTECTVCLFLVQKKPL
The experiment in a line: Biacore SPR; antibody captured on anti-mouse Fc CM5 chip, beta klotho 1.56-25 nM injected, 25 C. How it is done: Binding affinity measurements were also made in additional Biacore based assays. For example, equilibrium dissociation constant (KD) measurements were carried out with purified antibodies to evaluate their binding to human beta klotho and cyno beta klotho. As mentioned above, anti-mouse Fc antibody (Sigma-Aldrich, St. Louis, Mo.) was immobilized on all four flow cells of a CM5 chip using amine coupling reagents (GE Healthcare LifeSciences, Piscataway, N.J.). Purified antibodies were captured (˜100 RUs) on flow cells 2, 3 and 4 using flow cell 1 as a reference. This was followed by injection of different concentrations of human or cyno beta klotho (1.56 nM to 25 nM, two-fold dilutions in PBS-P buffer) at a flow rate of 70 μL/min and the binding kinetics were evaluated at 25° C.
(In general: SPR reads the build-up and loss of mass on a sensor chip optically.)

Numbering of substitutions follows the chain as printed.

B1: anti-beta klotho monoclonal antibody 3I13 (antibody, V domains shown)
VH: QVQLQQSGPELVKPGASVKISCKTSGYTFTEYTMHWVKQSHGKSLEWIGSFNPDSGGTSYNQKFKGKATLTVDKSSSTAYMELRSLTSEDSAVYYCARDDGYSTRYWYFDVWGAGTTVTVSS
VL: DIQMTQSPASLSASVGETVTITCGASENIYGALNWFQRKQGKSPQLLIYGATILADGMSSRFSGSGSGRQYSLKISSLHPDDVATYYCQNVLSTPYTFGGGTKLEIK
notes: Murine monoclonal antibody from a hybridoma (captured by anti-mouse Fc); also called 3I13 - Alexa488
Consider B1, for which the “Mean Florescence Intensity (MFI)” value in experiment [1] turned out to be 8.1 MFI. In experiment [2], the “HEK293 huKLB/R1c reporter assay EC50 (Experiment - A)” value came out at 333 pM and the “HEK293 huKLB/R1c reporter assay EC50 (Experiment - B)” value is 1980 pM. The molecule further registered a Kd in experiment [3] of 400 pM.

B2: anti-beta klotho monoclonal antibody 2J21 (antibody, V domains shown)
VH: B1 VH with Q1E, T33I, S50N, F51I, N52D, D54N, S55T, S77I, Y80F
VL: B1 VL with A9P, F36Y, I53N
notes: Murine monoclonal antibody from a hybridoma
In the case of B2, the “Mean Florescence Intensity (MFI)” value in experiment [1] amounted to 10.2 MFI. The same molecule registered a Kd in experiment [3] of 4800 pM.

B3: anti-beta klotho monoclonal antibody 4A2 (antibody, V domains shown)
VH: B1 VH with Q1E, A16T, H35Y, S50G, D54N, S55Y, T58A, G66D
VL: B1 VL with F36Y, I53N
notes: as for B2
On to B3, for which the “Mean Florescence Intensity (MFI)” value in experiment [1] is 9.1 MFI. The Kd in experiment [3] was found to be 920 pM.
